This series deals with FANCD2 (Homo sapiens, UniProt Q9BXW9 1-1451). The series is described as follows: EMSA; 200 ng protein; 20 mM HEPES pH 7.6, 5 mM EDTA, 1 mM DTT, 150 mM KCl, 50 mM (NH4)2SO4, 1% Tween-20; 20 min, room temperature; native 4% PAGE. Conditions: protein: recombinant; tags: His6 removed by thrombin; label: 32P; blunt (duplex implied; only one strand printed for EMSA). For orientation: Mobility shift assays separate free from complexed probe on a gel.

The values below come from paper PMC3166142, “Direct Inhibition of TNF-α Promoter Activity by Fanconi Anemia Protein FANCD2”.

FANCD2, sequence (Q9BXW9 whole entry): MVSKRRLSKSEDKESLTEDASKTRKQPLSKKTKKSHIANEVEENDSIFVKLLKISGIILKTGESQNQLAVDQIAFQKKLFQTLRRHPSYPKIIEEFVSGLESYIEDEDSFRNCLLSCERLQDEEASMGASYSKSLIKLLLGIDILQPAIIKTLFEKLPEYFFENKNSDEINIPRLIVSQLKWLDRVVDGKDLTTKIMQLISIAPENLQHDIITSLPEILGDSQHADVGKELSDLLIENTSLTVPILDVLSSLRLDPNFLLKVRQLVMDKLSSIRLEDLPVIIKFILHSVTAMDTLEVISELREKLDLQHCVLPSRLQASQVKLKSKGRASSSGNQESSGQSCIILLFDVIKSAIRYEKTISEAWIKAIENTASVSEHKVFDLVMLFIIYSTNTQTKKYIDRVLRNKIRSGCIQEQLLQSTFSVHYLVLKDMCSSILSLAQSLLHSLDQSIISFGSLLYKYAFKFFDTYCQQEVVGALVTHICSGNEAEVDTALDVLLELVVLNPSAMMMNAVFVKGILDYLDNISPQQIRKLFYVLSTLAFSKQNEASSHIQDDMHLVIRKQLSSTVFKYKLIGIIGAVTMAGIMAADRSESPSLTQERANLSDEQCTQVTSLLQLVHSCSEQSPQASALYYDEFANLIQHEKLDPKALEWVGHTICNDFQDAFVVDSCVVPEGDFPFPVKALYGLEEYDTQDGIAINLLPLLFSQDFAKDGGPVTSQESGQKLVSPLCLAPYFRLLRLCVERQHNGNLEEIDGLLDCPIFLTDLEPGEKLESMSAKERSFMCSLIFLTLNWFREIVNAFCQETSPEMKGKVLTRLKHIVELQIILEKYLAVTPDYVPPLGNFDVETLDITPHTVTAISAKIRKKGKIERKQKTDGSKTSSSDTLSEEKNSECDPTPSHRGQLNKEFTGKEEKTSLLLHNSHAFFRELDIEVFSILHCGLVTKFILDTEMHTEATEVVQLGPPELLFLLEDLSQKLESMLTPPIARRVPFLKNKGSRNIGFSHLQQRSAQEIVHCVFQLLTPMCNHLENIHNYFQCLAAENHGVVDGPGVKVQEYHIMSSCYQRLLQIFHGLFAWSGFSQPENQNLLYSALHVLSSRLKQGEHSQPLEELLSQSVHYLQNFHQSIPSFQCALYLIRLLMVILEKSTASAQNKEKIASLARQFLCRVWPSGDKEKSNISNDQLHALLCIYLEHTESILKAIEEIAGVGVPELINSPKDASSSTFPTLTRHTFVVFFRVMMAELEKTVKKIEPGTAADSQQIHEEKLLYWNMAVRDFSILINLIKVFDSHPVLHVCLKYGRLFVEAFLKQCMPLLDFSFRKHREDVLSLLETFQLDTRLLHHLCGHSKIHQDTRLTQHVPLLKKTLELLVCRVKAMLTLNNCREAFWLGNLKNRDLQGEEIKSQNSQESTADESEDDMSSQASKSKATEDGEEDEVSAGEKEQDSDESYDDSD

B1: kB1 (dsDNA)
DNA 1: GAGTATGGGGACCCCCCCTTAA
DNA 2: TTAAGGGGGGGTCCCCATACTC
Consider B1, for which the binding result is given as “binds”.
